These results are taken from patent US12227551B2, “Membrane bound IL12 compositions and methods for tunable regulation” (Obsidian Therapeutics, Inc., priority 2018, dated 2025).

In test [1] the test system is phospho-STAT4 in GFP+ T cells. As to the kind of experiment: Bystander effect: phospho-STAT4 in GFP+ T cells incubated 1 hour with co-culture supernatants, flow cytometry (Example 6; Table 20). In kind it is cell-based, human. The procedure:
Membrane bound IL12 (mbIL12) was expressed in tandem with a CD19-CAR and tested in primary human T cells. On day 0, primary human T cells were stimulated with Dynabeads (T-expander CD3/CD28) at a 3:1 bead:cell ratio in media containing 10% fetal bovine serum (FBS). The next day, lentivirus with mbIL12 in tandem with a CD19-CAR construct was added in the presence of reduced serum (5% FBS). After 7 days of T cell expansion, increasing numbers of CAR+ T cells were cocultured with 10,000 GFP+, CAR-negative T cells. At the end of 1 hour of co-culture, the phospho-STAT4 levels within the GFP+ T cells were quantitated by flow cytometry using reagents and methods from BD. To determine the relative amount of IL12 activity that had accumulated in the T cell supernatants during the hour-long co-culture, cell supernatants from the co-culture were transferred to a new plate of GFP+ T cells and incubated for 1 hour. Phospho-STAT4 levels were measured in the GFP+ T cells incubated with the supernatants from the original co-culture. The transactivation ([…] geometric mean fluorescence (MFI) on GFP+ cells in co-culture) and the bystander effect (pSTAT4 geometric MFI on GFP+ T cells in 1 hour supernatants) for a CAR-IL12+:GFP+ ratio of 64 are shown in Table 20.
The transactivation (pSTAT4 geometric mean fluorescence (MFI) on GFP+ cells in co-culture) and the bystander effect (pSTAT4 geometric MFI on GFP+ T cells in 1 hour supernatants) for the constructs at different ratios are summarized below. For OT-001407, when (a) the CAR-IL12+:GFP+ ratio was 32, the transactivation was 1711 and the bystander effect was −1680, (b) the CAR-IL12+:GFP+ ratio was 16, the transactivation was 1768 and the bystander effect was −1632, (c) the CAR-IL12+:GFP+ ratio was 8, the transactivation was 1433 and the bystander effect was −1603, (d) the CAR-IL12+:GFP+ ratio was 4, the transactivation was 1195 and the bystander effect was −1860, and (e) the CAR-IL12+:GFP+ ratio was 2, the transactivation was 1101 and the bystander effect was −1800. For OT-001356, when (a) the CAR-IL12+:GFP+ ratio was 73.9, the transactivation was 6452 and the bystander effect was −2617, (b) the CAR-IL12+:GFP+ ratio was 37, the transactivation was 6935 and the bystander effect was −1404, (c) the CAR-IL12+:GFP+ ratio was 18.5, the transactivation was 6417 and the bystander effect was −226, (d) the CAR-IL12+:GFP+ ratio was 9.2, the transactivation was 5568 and the bystander effect was −86, (e) the CAR-IL12+:GFP+ ratio was 4.6, the transactivation was 4374 and the bystander effect was −518, and (f) the CAR-IL12+:GFP+ ratio was 2.3, the transactivation was 2839 and the bystander effect was −1093. For OT-001895, when (a) the CAR-IL12+:GFP+ ratio was 34.1, the transactivation was 7699 and the bystander effect was −3724, (b) the CAR-IL12+:GFP+ ratio was 17.1, the transactivation was 7718 and the bystander effect was −2996, (c) the CAR-IL12+:GFP+ ratio was 8.5, the transactivation was 8200 and the bystander effect was −1178, (d) the CAR-IL12+:GFP+ ratio was 4.3, the transactivation was 7172 and the bystander effect was −277, (e) the CAR-IL12+:GFP+ ratio was 2.1, the transactivation was 6095 and the bystander effect was −238, and (f) the CAR-IL12+:GFP+ ratio was 1.1, the transactivation was 4498 and the bystander effect was −136. For OT-002011, when (a) the CAR-IL12+:GFP+ ratio was 75.8, the transactivation was 8086 and the bystander effect was −3531, (b) the CAR-IL12+:GFP+ ratio was 37.9, the transactivation was 8031 and the bystander effect was −2884, (c) the CAR-IL12+:GFP+ ratio was 18.9, the transactivation was 8324 and the bystander effect was −1376, (d) the CAR-IL12+:GFP+ ratio was 9.5, the transactivation was 7765 and the bystander effect was −1133, (e) the CAR-IL12+:GFP+ ratio was 4.7, the transactivation was 6682 and the bystander effect was −566, and (f) the CAR-IL12+:GFP+ ratio was 2.4, the transactivation was 5190 and the bystander effect was −642. […]

For test [2], the system named is CD19+ Nalm6 tumors. As to the kind of experiment: Nalm6-Luc tumor burden by BLI, mean total flux, NSG mice given CAR-T cells (Example 9; Table 28). Type of test: in vivo. The procedure:
(§1) The study was designed to determine if membrane bound IL12 (mbIL12) expressed on CAR-T cells via a CD8 TM domain and CD8 Hinge Region promotes CAR T cell expansion in cis, promotes non-CAR-T cell expansion in trans, and/or increases in vivo CAR T cell efficacy against CD19+ Nalm6 tumors. To test in vivo anti-tumor activity, experiments were performed in NSG mice. Nalm6 cells were transfected with Redifect Red-Fluc (Perkin Elmer) under selection using Puromycin for ˜2 months to generate a line that stably expresses the luciferase reporter; thereafter named Nalm6-Luc. Ten days before tumor implantation, Nalm6-Luc cells were thawed and cultured in puromycin-containing media. On day 0, cells were counted, resuspended in PBS and injected into NSG mice via tail vein. On day 6, mice were imaged for bioluminescent intensity (BLI) and sorted into groups based on their tumor size ensuring that all groups had the same sized tumors. Human T cells were transduced with one of the following constructs as shown in the study design in Table 27:
(§2) Next, holding total CAR+ T cell dose constant at either 300,000 or 1 million cells per animal, transduced T cells were intravenously infused into mice on day 7. Tumors were monitored in mice using BLI and the mean of the Total Flux (photons/second) was calculated for each group as an indicator of tumor burden (Table 28). In order to track the trans effect of IL12 expressing CART cells on T cells that lack expression of IL12, 5 million GFP+ T cells (negative for IL12) were co-infused with the IL12-expressing CAR+ T cells, and peripheral blood draws taken over time to evaluate the effect of IL12 on phenotypic changes in GFP+ T cells by flow cytometry analysis.

Test [3] concerns CD19+ Nalm6 tumors. The test is described as follows: Kaplan-Meier animal survival, Nalm6-Luc NSG model (Example 9; Table 29). In kind it is in vivo, NSG mice. The procedure:
as §1
Percent survival was also measured for each group during the course of the experiment and the following numbers were obtained as shown in Table 29: […]

Test [4] deals with CAR+ T cells and GFP+ T cells. As to the kind of experiment: CAR-T and GFP+ T cell expansion in peripheral blood by flow cytometry (Example 9; Table 32). The note with it: cell numbers in 50 uL blood. In kind it is in vivo, NSG mice. Here is the method: as §2
Thus, anti-tumor efficacy (Table 28) appears to correlate with CAR-T cell expansion.

B1: OT-001356: CD19 CAR; stop; IRES; secreted IL12 (p40 23-328; (G4S)3; p35 57-253); nucleic acid SEQ ID NO: 482 (protein)
chain: IWELKKDVYVVELDWYPDAPGEMVVLTCDTPEEDGITWTLDQSSEVLGSGKTLTIQVKEFGDAGQYTCHKGGEVLSHSLLLLHKKEDGIWSTDILKDQKEPKNKTFLRCEAKNYSGRFTCWWLTTISTDLTFSVKSSRGSSDPQGVTCGAATLSAERVRGDNKEYEYSVECQEDSACPAAEESLPIEVMVDAVHKLKYENYTSSFFIRDIIKPDPPKNLQLKPLKNSRQVEVSWEYPDTWSTPHSYFSLTFCVQVQGKSKREKKDRVFTDKTSATVICRKNASISVRAQDRYYSSSWSEWASVPCSGGGGSGGGGSGGGGSRNLPVATPDPGMFPCLHHSQNLLRAVSNMLQKARQTLEFYPCTSEEIDHEDITKDKTSTVEACLPLELTKNESCLNSRETSFITNGSCLASRKTSFMMALCLSSIYEDLKMYQVEFKTMNAKLLMDPKRQIFLDQNMLAVIDELMQALNFNSETVPQKSSLEEPDFYKTKIKLCILLHAFRIRAVTIDRVMSYLNASGS
As for B1, the “bystander effect (pSTAT4 geometric MFI on GFP+ T cells in 1 hour supernatants)” value in test [1] (CAR-IL12+:GFP+ ratio 2.3) is recorded as −1093; in test [1] (CAR-IL12+:GFP+ ratio 4.6), −518; in test [1] (CAR-IL12+:GFP+ ratio 9.2), −86; in test [1] (CAR-IL12+:GFP+ ratio 18.5), −226; in test [1] (CAR-IL12+:GFP+ ratio 37), −1404; in test [1] (CAR-IL12+:GFP+ ratio 73.9) it was −2617. Further, the “Mean Total Flux (Nalm-6 Tumor Burdon)” value is listed as 1069500 photons/second in the test on CD19+ Nalm6 tumors [2] (day 6 post tumor implant, day −1 post T cell transfer (before infusion), cell dose not given); 17363750 photons/second with CD19+ Nalm6 tumors [2] (day 13 post tumor implant, day 6 post T cell transfer); 555500 photons/second in the test with CD19+ Nalm6 tumors [2] (day 20 post tumor implant, day 13 post T cell transfer); 769125 photons/second in the test on CD19+ Nalm6 tumors [2] (day 27 post tumor implant, day 20 post T cell transfer); 743125 photons/second in the test on CD19+ Nalm6 tumors [2] (day 34 post tumor implant, day 27 post T cell transfer); 716750 photons/second with CD19+ Nalm6 tumors [2] (day 41 post tumor implant, day 34 post T cell transfer). In addition, the “Proportion of survival post tumor implant” value in the test with CD19+ Nalm6 tumors [3] (day 0 post tumor implant) turned out to be 100%; with CD19+ Nalm6 tumors [3] (day 41 post tumor implant) it was 50.0%; with CD19+ Nalm6 tumors [3] (day 43 post tumor implant) it was 50.0%. The figures for the “Cis Effect: Numbers of CAR+ Cells on Day 14” value in test [4] (cell dose 0.3 ×10e6) and in test [4] (cell dose 1 ×10e6) were 1402.64 and 3789.89, respectively. Further, the entries for the “Trans Effect: Numbers of GFP+ Cells on Day 14” value in test [4] (cell dose 0.3 ×10e6) and in test [4] (cell dose 1 ×10e6) were 400.00 and 332.75, respectively.
